The values that follow come from paper PMC7407159.

The test concerns the target T1, histidine tagged full length homo sapiens mitofusin 1 (hsMfn1) (human), Q8IWA4.
T1 chain: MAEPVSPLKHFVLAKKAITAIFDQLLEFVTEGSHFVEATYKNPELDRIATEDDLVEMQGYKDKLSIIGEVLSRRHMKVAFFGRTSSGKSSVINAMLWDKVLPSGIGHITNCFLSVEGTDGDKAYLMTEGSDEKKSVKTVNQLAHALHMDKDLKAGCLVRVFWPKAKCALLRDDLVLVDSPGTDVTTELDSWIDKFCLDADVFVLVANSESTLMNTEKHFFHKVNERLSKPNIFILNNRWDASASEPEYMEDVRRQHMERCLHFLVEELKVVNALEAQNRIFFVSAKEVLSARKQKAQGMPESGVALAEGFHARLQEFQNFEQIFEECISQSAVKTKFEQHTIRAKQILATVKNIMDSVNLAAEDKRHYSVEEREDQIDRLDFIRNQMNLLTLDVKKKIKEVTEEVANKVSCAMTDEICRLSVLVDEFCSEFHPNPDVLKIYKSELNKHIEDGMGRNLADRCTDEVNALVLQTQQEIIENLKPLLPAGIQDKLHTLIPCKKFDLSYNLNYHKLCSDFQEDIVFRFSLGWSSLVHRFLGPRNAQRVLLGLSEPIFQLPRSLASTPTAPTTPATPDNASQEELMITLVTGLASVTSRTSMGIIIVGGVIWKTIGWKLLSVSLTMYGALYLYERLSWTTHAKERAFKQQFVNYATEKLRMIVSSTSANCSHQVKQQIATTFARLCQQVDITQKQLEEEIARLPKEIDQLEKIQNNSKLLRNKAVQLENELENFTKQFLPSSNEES
The test is described as follows: vesicle adhesion (shape of adhered GUV doublets by confocal microscopy), adhesion strength fitted to a cooperative binding model; His-Mfn1 (detergent resistant fraction of Mfn1-IMVs) bound by its histidine tag to POPC/DOGS-NTA GUVs with 10, 15, 20 and 25 mol% DOGS-NTA; 10 mM GDP, 2.5 mM …; 22 °C; Eadh against [NTA] fitted to Equation (6); two-dimensional binding equilibrium constant for planar membranes, Mfn1 with …. The conditions noted are these: remark: other sources report otherwise.

B1: histidine tagged full length homo sapiens mitofusin 1 (hsMfn1), Q8IWA4 1-741 (natural protein)
chain: T1 chain
In the case of B1, the two-dimensional binding equilibrium constant for planar membranes (K2D' of Equation 6, printed as KD') (nm^2 per molecule) came out at 0.1.
